Test results as given in paper PMC12871931, “The importin‐alpha superfamily engages in ethylene signaling by shuttling [sequence] INSENSITIVE 2 from the endoplasmic reticulum to the nucleus” (The Febs Journal, 2025).

How the values were obtained:
EIN2C^479–1294 = experiment: In planta FLIM‐FRET, EIN2C^479–1294‐CER donor, IMPα‐YFP acceptors; format: cell-based, Arabidopsis thaliana; conditions: N. benthamiana epidermal leaf cells; for average fluorescence lifetime of the EIN2C^479‐1294‐CER donor: co‐expression, vs donor only, Kruskal‐Wallis and Dunn's test, 18–20 measurements
Description: To further investigate the interaction between members of the IMPα superfamily and EIN2 in planta, we used in vivo fluorescence lifetime microscopy and Förster's resonance energy transfer (FLIM‐FRET). Accordingly, the C‐terminal part of EIN2 (EIN2C^479–1294) was fused to the fluorescent protein Cerulean (CER), serving as a donor, and the IMPα isoforms (IMPα1‐7) were fused to YELLOW FL[…] (YFP), serving as acceptors.
(§1) A modified version of a previously described procedure was used for the transient transformation of N. benthamiana. An overnight culture of agrobacteria was inoculated in DYT and incubated at 28°C one day before infiltration. Bacteria were then centrifuged at 4000 g and resuspended in infiltration medium (5% (w/v) Saccharose; 0.01% (w/v) MgSO4; 0.01% (w/v) Glucose; Acetosyringone 450 μM) to an OD600 of 0.4–0.8. Resuspended bacteria were kept on ice for 1–2 h prior to infiltration. For co‐infiltration, bacteria solutions were mixed in equal quantities, and Agrobacterium strain GV3101:p19 expressing the p19 silencing inhibitor was added to each mix. Infiltration of the bacteria solution was performed with a 1 mL syringe onto the abaxial side of 3‐ to 4‐week‐old plants. Plants were kept under continuous light before microscopy analysis. For ß‐estradiol inducible constructs, plants were sprayed on the abaxial side of infiltrated leaves with an estradiol solution (ß‐estradiol 20 μM; Tween‐20 0.1% (w/v)) prior to imaging.
Fluorescence lifetime imaging was performed using a protocol described previously. Fluorescence lifetime was measured at a Zeiss LSM 780 confocal microscope (40× water immersion objective, Zeiss C‐PlanApo, NA 1.2). For TCSPC, a PicoQuant Hydra Harp 400 (PicoQuant, Berlin, Germany) was used. Photon counting was performed with a picosecond resolution. Cerulean was excited with a 440 nm ([…], 32 MHz, PicoQuant, Berlin, Germany) pulsed polarized laser. Laser power at the objective lens was adjusted to ~2.2 μW in N. benthamiana experiments. […] Photons were detected in both donor and acceptor channels simultaneously with Tau‐SPADs (PicoQuant, Berlin, Germany). […] Internal response functions for each laser were determined by measuring the fluorescence decay of quenched Atto425 in saturated KI, using the same hardware settings as for the FRET pair of interest. Fluorescence lifetime images were acquired in the cytosol, ER, or nucleus in donor‐only samples and samples with IMPα1‐4 and IMPα7. […]
The fluorescence decays were fitted using a previously reported method with minor modifications.
The fluorescence decays of selected ROIs in the FLIM image were analyzed with the SymPhoTime FLIM analysis software (SymPhoTime 64, version 2.4; PicoQuant, Berlin, Germany). […]

ΔIBB_IMPα1 = ΔIBB_IMPα1 (Arabidopsis thaliana, UniProt Q96321); format: binding
Description: Next, we used biolayer interferometry (BLI) with an Octet K2 instrument (Fortè Bio, Dallas, USA) to substantiate and further delineate the binding interactions between the IMPα superfamily and the EIN2‐NLS motif. BLI measures slight changes in reflected light at a sensor surface upon the formation of molecular complexes. Specifically, it monitors interference patterns of white light, which are reflected from two different surfaces: an internal reference layer and a layer of biomolecules immobilized on a biosensor tip.
In these binding assays, IMPα1 lacking the IBB domain (ΔIBB_IMPα1) and IMPα4 were selected as representatives of the IMPα superfamily. Prior to their interaction studies with different EIN2 CEND‐NLS probes, both importins were biotinylated with the Biotin‐PEG4‐NHS ester Protein Labeling Kit from Jena Bioscience (Jena, Germany) and immobilized onto streptavidin‐coated biosensor tips (Fig. 5).
Curve fitting of the BLI sensorgrams was tested with different binding models. […] This model assumes analyte binding at two independent ligand sites at the IMPα immobilized on the biosensor surface. Furthermore, each ligand site binds the analyte independently and with a different rate constant. […]

[1] = system: N. benthamiana epidermal leaf cells; experiment: Confocal fluorescence microscopy, subcellular localization; format: cell-based; conditions: Cerulean fusion, transiently transformed N. benthamiana epidermal leaf cells
Description: as §1
For fluorescence imaging, a Zeiss LSM 780 confocal microscope (40× water immersion objective, Zeiss C‐PlanApo, NA 1.2) was used. YFP was excited at 514 nm and Cerulean at 458 nm. Signal recording of each fluorophore was done within its maximum emission peak while avoiding auto‐fluorescence above 650 nm. […]

Sequence of ΔIBB_IMPα1 (Q96321 whole entry, stated change not applied): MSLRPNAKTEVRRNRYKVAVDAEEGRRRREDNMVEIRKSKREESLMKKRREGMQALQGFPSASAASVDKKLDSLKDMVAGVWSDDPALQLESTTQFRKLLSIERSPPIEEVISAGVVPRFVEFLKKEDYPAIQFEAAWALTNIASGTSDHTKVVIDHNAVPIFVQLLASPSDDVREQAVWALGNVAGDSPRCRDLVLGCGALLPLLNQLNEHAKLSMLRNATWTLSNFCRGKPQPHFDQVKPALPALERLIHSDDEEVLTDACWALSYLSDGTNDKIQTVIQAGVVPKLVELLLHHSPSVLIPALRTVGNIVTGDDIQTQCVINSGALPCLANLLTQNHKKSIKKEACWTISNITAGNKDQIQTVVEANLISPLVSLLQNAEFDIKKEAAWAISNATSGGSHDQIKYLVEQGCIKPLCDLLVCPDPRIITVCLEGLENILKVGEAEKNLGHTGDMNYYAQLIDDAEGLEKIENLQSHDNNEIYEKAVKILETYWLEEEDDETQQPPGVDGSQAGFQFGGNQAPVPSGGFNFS

B1: IMPα5: A. thaliana IMPα5 fused to YFP, FRET acceptor (protein)
chain: MSLRPSTKTEIRRIRYKVSVDAEEGRRRREDFLVEIRKSKRNENLMKKRRVKVLPPDYKLISNDPFESLLEIANMITGVFSDDPSLQLEYTTRFRVVLSFDRSPPTDNVIKSGVVPRFVEFLKKDDNPKLQFEAAWALTNIASGASEHTKVVIDHGVVPLFVQLLASPDDDVREQAIWGLGNVAGDSIQCRDFVLNSGAFIPLLHQLNNHATLSILRNATWTLSNFFRGKPSPPFDLVKHVLPVLKRLVYSDDEQVLIDACWALSNLSDASNENIQSVIEAGVVPRLVELLQHASPVVLVPALRCIGNIVSGNSQQTHCVINCGVLPVLADLLTQNHMRGIRREACWTISNITAGLEEQIQSVIDANLIPSLVNLAQHAEFDIKKEAIWAISNASVGGSPNQIKYLVEQNCIKALCDILVCPDLRIILVSLGGLEMILIAGEVDKNLRDVNCYSQMIEDAEGLEKIENLQHHGNNEIYEKAVKILQTYGLVEEDGRLVEEEDEGGDGCSHPEFQFDFSR
modifications: left off: His6, C-terminal, state not stated
notes: A. thaliana IMPα5 fused to YFP, FRET acceptor
For B1, the “average fluorescence lifetime of the EIN2C^479‐1294‐CER donor” value (“average fluorescence lifetime” below) (EIN2C^479–1294) was “only slightly, but not significantly reduced” and the FRET efficiency (EIN2C^479–1294; mean, EIN2C^479–1294‐CER donor / IMPα‐YFP acceptor) was 1%.

B2: GB1‐AtEIN2C^1215–1281: CEND construct containing a GB1‐tag to enhance solubility, produced recombinantly in E. coli (protein)
chain: {GB1 tag}-KGKCTTAVTLLDLIKDVEMAISCRKGRTGTAAGDVAFPKGKENLASVLKRYKRRLSNKPVGMNQDGP
modifications: not fully specified
notes: CEND construct containing a GB1‐tag to enhance solubility, produced recombinantly in E. coli
With B2 the Hill coefficient (ΔIBB_IMPα1; BLI dose response, ΔIBB_IMPα1) was 0.94 ± 0.06 and the Kd (ΔIBB_IMPα1; BLI, ΔIBB_IMPα1 biotinylated on streptavidin biosensor (15 μM in 100 mM Tris pH 7.0, 100 mM KCl, 0.01% Tween 20), room temperature, association 300 s, dissociation 300 s, 1:2 heterogeneous ligand model, n = 3, read-out: K d + SD) was 8.8 ± 1.1 µM.

B3: IMPα7‐YFP: A. thaliana IMPα7 fused to YFP, FRET acceptor (protein)
chain: MKGGETMSVRRSGYKAVVDGVGGRRRREDDMVEIRKAKREESLLKKRREALPHSPSADSLDQKLISCIWSDERDLLIEATTQIRTLLCGEMFNVRVEEVIQAGLVPRFVEFLTWDDSPQLQFEAAWALTNIASGTSENTEVVIDHGAVAILVRLLNSPYDVVREQVVWALGNISGDSPRCRDIVLGHAALPSLLLQLNHGAKLSMLVNAAWTLSNLCRGKPQPPFDQVSAALPALAQLIRLDDKELLAYTCWALVYLSDGSNEKIQAVIEANVCARLIGLSIHRSPSVITPALRTIGNIVTGNDSQTQHIIDLQALPCLVNLLRGSYNKTIRKEACWTVSNITAGCQSQIQAVFDADICPALVNLLQNSEGDVKKEAAWAICNAIAGGSYKQIMFLVKQECIKPLCDLLTCSDTQLVMVCLEALKKILKVGEVFSSRHAEGIYQCPQTNVNPHAQLIEEAEGLEKIEGLQSHENNDIYETAVKILETYWMEEEEEEDQEQQDMIYFPVDNFANMPTSSGTLSEMHCGP
modifications: left off: YFP, end not stated, kept
notes: A. thaliana IMPα7 fused to YFP, FRET acceptor
In the case of B3, the “average fluorescence lifetime” value (EIN2C^479–1294) is reported as “significant reduction”.

B4: IMPα6‐YFP: A. thaliana IMPα6 fused to YFP, FRET acceptor (protein)
chain: MSYKPSAKTEVRRNRYKVSVDADEGRRRREDNMVEIRKNKREENLQKKRREGFNPSMASQPGQDFSSSLPTETRLENIQQMIAGVMSEDRDLQLEATASFRRLLSIERNPPINEVVQSGVVPHIVQFLSRDDFTQLQFEAAWALTNIASGTSENTRVIIDSGAVPLFVKLLSSASEEVREQAVWALGNVAGDSPKCRDHVLSCEAMMSLLAQFHEHSKLSMLRNATWTLSNFCRGKPQPAFEQTKAALPALERLLHSTDEEVLTDASWALSYLSDGTNEKIQTVIDAGVIPRLVQLLAHPSPSVLIPALRTIGNIVTGDDIQTQAVISSQALPGLLNLLKNTYKKSIKKEACWTISNITAGNTSQIQEVFQAGIIRPLINLLEIGEFEIKKEAVWAISNATSGGNHDQIKFLVSQGCIRPLCDLLPCPDPRVVTVTLEGLENILKVGEAEKNLGNTGNDNLYAQMIEDADGLDKIENLQSHDNNEIYEKAVKILESYWAADDEEEDIGGVDAPENVQSSGFQFGNQSGNAPTGGFNFG
modifications: left off: YFP, end not stated, kept
notes: A. thaliana IMPα6 fused to YFP, FRET acceptor
In the case of B4, the “average fluorescence lifetime” value (EIN2C^479–1294) is reported as “significant reduction”.

B5: EIN2C^479–1294: C‐terminal part of EIN2 fused to Cerulean (CER), FRET donor (protein)
chain: NALSYPSVQEEEIERTETRRNEDESIVRLESRVKDQLDTTSVTSSVYDLPENILMTDQEIRSSPPEERELDVKYSTSQVSSLKEDSDVKEQSVLQSTVVNEVSDKDLIVETKMAKIEPMSPVEKIVSMENNSKFIEKDVEGVSWETEEATKAAPTSNFTVGSDGPPSFRSLSGEGGSGTGSLSRLQGLGRAARRHLSAILDEFWGHLYDFHGQLVAEARAKKLDQLFGTDQKSASSMKADSFGKDISSGYCMSPTAKGMDSQMTSSLYDSLKQQRTPGSIDSLYGLQRGSSPSPLVNRMQMLGAYGNTTNNNNAYELSERRYSSLRAPSSSEGWEHQQPATVHGYQMKSYVDNLAKERLEALQSRGEIPTSRSMALGTLSYTQQLALALKQKSQNGLTPGPAPGFENFAGSRSISRQSERSYYGVPSSGNTDTVGAAVANEKKYSSMPDISGLSMSARNMHLPNNKSGYWDPSSGGGGYGASYGRLSNESSLYSNLGSRVGVPSTYDDISQSRGGYRDAYSLPQSATTGTGSLWSRQPFEQFGVAERNGAVGEELRNRSNPINIDNNASSNVDAEAKLLQSFRHCILKLIKLEGSEWLFGQSDGVDEELIDRVAAREKFIYEAEAREINQVGHMGEPLISSVPNCGDGCVWRADLIVSFGVWCIHRVLDLSLMESRPELWGKYTYVLNRLQGVIDPAFSKLRTPMTPCFCLQIPASHQRASPTSANGMLPPAAKPAKGKCTTAVTLLDLIKDVEMAISCRKGRTGTAAGDVAFPKGKENLASVLKRYKRRLSNKPVGMNQDGPGSRKNVTAYGSLG
modifications: left off: Cerulean, end not stated, kept
notes: C‐terminal part of EIN2 fused to Cerulean (CER), FRET donor
With B5 the subcellular localization [1] was “localized in the nucleus, ER, and cytoplasm”.
